From PMC3760334

Columns and labels:
[1] = biological target: signal recognition particle (SRP), fluorescein-labeled at C421 (E. coli) (UniProt P0AGD7); experiment: fluorescence polarisation
[2] = biological target: RNC_(luciferase) bound to donor-labeled SRP (E. coli | firefly) (UniProt P0AGD7); experiment: FRET or BRET
[3] = biological target: RNC_(EspP) bound to donor-labeled SRP (E. coli) (UniProt P0AGD7); experiment: FRET or BRET
[4] = biological target: RNC_(2A8L) bound to donor-labeled SRP (E. coli | not stated) (UniProt P0AGD7); experiment: FRET or BRET
[5] = biological target: RNC_(1A9L) bound to donor-labeled SRP (E. coli | not stated) (UniProt P0AGD7); experiment: FRET or BRET

Row | Substance | Kd [1] | Kd [2] | Kd [3] | kon [4] | kon [5]
1 | RNC_(EspP): stalled ribosome-nascent chain complex with the signal sequence of EspP | 0.0136 µM | – | – | – | –
2 | RNC_(luciferase): stalled ribosome-nascent chain complex with a nascent chain of firefly luciferase (from UniProt P08659 1-550) | 0.13 µM | – | – | – | –
3 | RNC_(phoA): stalled ribosome-nascent chain complex with the signal sequence of alkaline phosphatase (phoA) | 0.108 µM | – | – | – | –
4 | SRP receptor (SR), acceptor-labeled (from UniProt P10121 1-497) | – | 2.06 µM | 0.311 µM | 8.8e+06 M⁻¹ s⁻¹ | 9.9e+06 M⁻¹ s⁻¹
